According to patent US20220332804A1 (CSL INNOVATION, published 2022):

Tests used:
Assay in all cases: SPR; KD relative to WT C2;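 note: biacore SPR at 37 °C, anti-C2 mAbs captured on an anti-human IgG chip, alanine or serine C2 surface mutants tested, KD from 1:1 fit compared with wild-type C2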
human C2 M316A = target: T1, human C2 M316A (human, UniProt P06681 21-752)
T1 sequence: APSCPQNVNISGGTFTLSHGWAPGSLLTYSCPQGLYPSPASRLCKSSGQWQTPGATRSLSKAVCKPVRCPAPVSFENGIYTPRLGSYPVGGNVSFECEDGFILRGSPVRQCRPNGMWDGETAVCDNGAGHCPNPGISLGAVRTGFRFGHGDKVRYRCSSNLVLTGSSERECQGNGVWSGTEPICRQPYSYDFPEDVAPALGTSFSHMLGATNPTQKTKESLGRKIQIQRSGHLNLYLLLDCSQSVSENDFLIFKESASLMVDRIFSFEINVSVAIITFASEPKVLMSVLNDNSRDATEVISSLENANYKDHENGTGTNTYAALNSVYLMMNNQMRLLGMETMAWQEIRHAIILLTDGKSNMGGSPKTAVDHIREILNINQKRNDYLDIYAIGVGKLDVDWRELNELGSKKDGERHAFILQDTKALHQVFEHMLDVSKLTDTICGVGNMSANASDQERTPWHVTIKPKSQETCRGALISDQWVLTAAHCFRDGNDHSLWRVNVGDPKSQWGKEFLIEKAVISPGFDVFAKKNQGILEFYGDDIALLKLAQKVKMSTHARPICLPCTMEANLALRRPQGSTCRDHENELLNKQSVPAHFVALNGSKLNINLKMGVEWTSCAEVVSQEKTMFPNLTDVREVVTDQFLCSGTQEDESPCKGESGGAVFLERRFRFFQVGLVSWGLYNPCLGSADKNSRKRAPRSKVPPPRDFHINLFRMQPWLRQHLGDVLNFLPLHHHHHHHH

human C2 N327A = target: T2, human C2 N327A (human, UniProt P06681 21-752)
T2 sequence: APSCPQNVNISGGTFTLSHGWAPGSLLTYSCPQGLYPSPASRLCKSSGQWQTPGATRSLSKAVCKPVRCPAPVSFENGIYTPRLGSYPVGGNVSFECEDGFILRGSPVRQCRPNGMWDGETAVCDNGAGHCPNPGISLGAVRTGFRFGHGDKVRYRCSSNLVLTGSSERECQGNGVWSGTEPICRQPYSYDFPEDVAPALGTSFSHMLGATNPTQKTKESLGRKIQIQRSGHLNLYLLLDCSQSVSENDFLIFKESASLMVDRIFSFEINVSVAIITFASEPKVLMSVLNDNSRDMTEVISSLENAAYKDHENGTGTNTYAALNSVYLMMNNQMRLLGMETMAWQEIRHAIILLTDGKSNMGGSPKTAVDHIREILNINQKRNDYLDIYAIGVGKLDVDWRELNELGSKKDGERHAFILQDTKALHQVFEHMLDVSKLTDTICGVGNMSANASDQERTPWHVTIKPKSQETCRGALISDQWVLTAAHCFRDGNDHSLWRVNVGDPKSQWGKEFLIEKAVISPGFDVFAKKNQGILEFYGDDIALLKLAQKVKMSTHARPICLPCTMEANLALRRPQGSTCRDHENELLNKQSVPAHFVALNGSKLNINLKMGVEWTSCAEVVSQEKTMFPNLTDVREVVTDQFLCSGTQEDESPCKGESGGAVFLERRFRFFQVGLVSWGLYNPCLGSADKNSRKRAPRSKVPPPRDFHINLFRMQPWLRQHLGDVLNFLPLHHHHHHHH

human C2 V465A = target: T3, human C2 V465A (human, UniProt P06681 21-752)
T3 sequence: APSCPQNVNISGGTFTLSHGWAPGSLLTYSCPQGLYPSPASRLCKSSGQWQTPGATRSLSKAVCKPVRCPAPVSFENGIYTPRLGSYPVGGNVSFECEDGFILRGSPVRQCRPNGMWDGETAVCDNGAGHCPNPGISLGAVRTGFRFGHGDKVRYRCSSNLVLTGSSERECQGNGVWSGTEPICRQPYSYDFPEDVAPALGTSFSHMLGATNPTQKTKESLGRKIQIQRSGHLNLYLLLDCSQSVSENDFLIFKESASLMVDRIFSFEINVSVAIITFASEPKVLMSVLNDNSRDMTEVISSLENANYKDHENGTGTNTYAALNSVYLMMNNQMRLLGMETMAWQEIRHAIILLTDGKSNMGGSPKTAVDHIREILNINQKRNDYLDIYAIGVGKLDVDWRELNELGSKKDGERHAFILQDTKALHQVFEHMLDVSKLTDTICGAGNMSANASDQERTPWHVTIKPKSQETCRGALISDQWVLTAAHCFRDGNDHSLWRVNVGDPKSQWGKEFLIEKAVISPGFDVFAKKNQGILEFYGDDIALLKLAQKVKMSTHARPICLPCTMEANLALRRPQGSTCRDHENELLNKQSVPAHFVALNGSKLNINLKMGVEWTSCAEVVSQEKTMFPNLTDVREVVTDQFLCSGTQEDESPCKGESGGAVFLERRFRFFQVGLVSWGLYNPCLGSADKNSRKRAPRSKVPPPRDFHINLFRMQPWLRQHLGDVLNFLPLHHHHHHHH

human C2 L620A = target: T4, human C2 L620A (human, UniProt P06681 21-752)
T4 sequence: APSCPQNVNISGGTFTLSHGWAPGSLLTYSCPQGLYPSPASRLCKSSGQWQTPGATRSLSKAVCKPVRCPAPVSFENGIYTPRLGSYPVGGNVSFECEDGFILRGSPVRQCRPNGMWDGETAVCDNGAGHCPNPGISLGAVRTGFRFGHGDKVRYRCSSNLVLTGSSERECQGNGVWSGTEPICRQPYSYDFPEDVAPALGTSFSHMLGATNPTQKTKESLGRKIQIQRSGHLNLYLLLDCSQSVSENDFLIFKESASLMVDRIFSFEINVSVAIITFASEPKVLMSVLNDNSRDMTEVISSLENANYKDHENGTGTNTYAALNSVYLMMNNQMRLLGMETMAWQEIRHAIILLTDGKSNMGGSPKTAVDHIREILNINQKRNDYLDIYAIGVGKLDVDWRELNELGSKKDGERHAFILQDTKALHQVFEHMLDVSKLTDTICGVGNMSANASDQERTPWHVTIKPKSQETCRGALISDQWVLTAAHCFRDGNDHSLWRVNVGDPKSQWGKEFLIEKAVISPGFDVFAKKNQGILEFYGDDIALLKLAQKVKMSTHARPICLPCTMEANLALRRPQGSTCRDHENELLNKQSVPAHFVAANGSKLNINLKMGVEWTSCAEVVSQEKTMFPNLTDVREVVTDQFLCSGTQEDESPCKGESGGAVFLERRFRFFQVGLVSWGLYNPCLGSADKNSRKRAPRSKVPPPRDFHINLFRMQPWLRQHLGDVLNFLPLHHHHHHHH

Fold diff (human C2 M316A): 1 fold
Fold diff (human C2 N327A): 7 fold
Fold diff (human C2 V465A): 2 fold
Fold diff (human C2 L620A): 1 fold
B1: RF16-214 (antibody, V domains shown)
VH: EVQLLESGGGLVQPGGSLRLSCAASGFTFSWYQMMWVRQAPGKGLEWVSRIYPSGGGTAYADSVKGRFTISRDNSKNTLYLQMNSLRAEDTAVYYCARDAGYGDNWGQGTLVTVSS
VL: QSALTQPPSVSVSPGQTASITCSGDKLGEKYASWYQQKAGQSPVMVIYQDRKRPSGIPERFSGSNSGNTATLTISGTQAMDEADYYCQAWDTRAVVFGGGTKLTVLG
